# Reference: US10772928B2, “Modulation and detection of a neuronal alternative splicing regulatory network for treatment and diagnosis of neurological disorders” (The Governing Council of the University of Toronto, priority 2014, dated 2020)
# T1: nSR100 (Mus musculus, UniProt Q8BKA3)
# T1 construct: host or cells: mouse N2A cells
# T1 sequence (Q8BKA3 1-608): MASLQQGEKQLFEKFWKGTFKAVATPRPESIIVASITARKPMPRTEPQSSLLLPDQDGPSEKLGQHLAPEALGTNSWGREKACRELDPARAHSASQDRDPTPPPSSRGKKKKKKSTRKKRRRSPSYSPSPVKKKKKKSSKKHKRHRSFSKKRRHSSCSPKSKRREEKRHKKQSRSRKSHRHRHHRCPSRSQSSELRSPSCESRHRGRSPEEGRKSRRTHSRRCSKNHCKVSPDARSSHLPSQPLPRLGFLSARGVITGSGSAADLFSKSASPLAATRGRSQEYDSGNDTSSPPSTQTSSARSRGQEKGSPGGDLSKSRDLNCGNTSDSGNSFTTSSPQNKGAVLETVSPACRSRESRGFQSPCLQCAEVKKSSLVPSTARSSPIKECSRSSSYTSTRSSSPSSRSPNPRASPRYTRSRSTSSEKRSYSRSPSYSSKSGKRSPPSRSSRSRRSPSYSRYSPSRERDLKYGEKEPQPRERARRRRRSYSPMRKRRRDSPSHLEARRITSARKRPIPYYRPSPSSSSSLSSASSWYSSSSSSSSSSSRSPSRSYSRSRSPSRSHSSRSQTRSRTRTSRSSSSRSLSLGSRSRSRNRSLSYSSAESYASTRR
# B1: P00761 (protein, UniProt P00761 1-231, looked up)
# chain: FPTDDDDKIVGGYTCAANSIPYQVSLNSGSHFCGGSLINSQWVVSAAHCYKSRIQVRLGEHNIDVLEGNEQFINAAKIITHPNFNGNTLDNDIMLIKLSSPATLNSRVATVSLPRSCAAAGTECLISGWGNTKSSGSSYPSLLQCLKAPVLSDSSCKSSYPGQITGNMICVGFLEGGKDSCQGDSGGPVVCNGQLQGIVSWGYGCAQKNKPGVYTKVCNYVNWIQQTIAAN
# modifications: full-length
# B2: Api5 (protein, UniProt O35841 1-504, looked up)
# Apoptosis inhibitor 5: MPTVEELYRNYGILADATEQVGQHKDAYQVILDGVKGGTKEKRLAAQFIPKFFKHFPELADSAINAQLDLCEDEDVSIRRQAIKELPQFATGENLPRVADILTQLLQTDDSAEFNLVNNALLSIFKMDAKGTLGGLFSQILQGEDIVRERAIKFLSTKLKTLPDEVLTKEVEELILTESKKVLEDVTGEEFVLFMKILSGLKSLQTVSGRQQLVELVAEQADLEQAFSPSDPDCVDRLLQCTRQAVPLFSKNVHSTRFVTYFCEQVLPNLSTLTTPVEGLDIQLEVLKLLAEMSSFCGDMEKLETNLRKLFDKLLEYMPLPPEEAENGENAGNEEPKLQFSYVECLLYSFHQLGRKLPDFLTAKLNAEKLKDFKIRLQYFARGLQVYIRQLRLALQGKTGEALKTEENKIKVVALKITNNINVLIKDLFHIPPSYKSTVTLSWKPVQKVEIGQKRTSEDTSSGSPPKKSPGGPKRDARQIYNPPSGKYSSNLSNFNYERSLQGK
# B3: Cdc37 (protein, UniProt Q61081 1-379, looked up)
# Hsp90 co-chaperone Cdc37: MVDYSVWDHIEVSDDEDETHPNIDTASLFRWRHQARVERMEQFQKEKEELDRGCRECKRKVAECQRKLKELEVAESDGQVELERLRAEAQQLRKEERSWEQKLEDMRKKEKNMPWNVDTLSKDGFSKSMVNTKPEKAEEDSEEAREQKHKTFVEKYEKQIKHFGMLHRWDDSQKYLSDNVHLVCEETANYLVIWCIDLEVEEKCALMEQVAHQTMVMQFILELAKSLKVDPRACFRQFFTKIKTADHQYMEGFKYELEAFKERVRGRAKLRIEKAMKEYEEEERKKRLGPGGLDPVEVYESLPEELQKCFDVKDVQMLQDAISKMDPTDAKYHMQRCIDSGLWVPNSKSGEAKEGEEAGPGDPLLEAVPKAGNEKDVSA
# B4: Csnk2a2 (protein, UniProt O54833 1-350, looked up)
# Casein kinase II subunit …: MPGPAAGSRARVYAEVNSLRSREYWDYEAHVPSWGNQDDYQLVRKLGRGKYSEVFEAINITNNERVVVKILKPVKKKKIKREVKILENLRGGTNIIKLIDTVKDPVSKTPALVFEYINNTDFKQLYQILTDFDIRFYMYELLKALDYCHSKGIMHRDVKPHNVMIDHQQKKLRLIDWGLAEFYHPAQEYNVRVASRYFKGPELLVDYQMYDYSLDMWSLGCMLASMIFRKEPFFHGQDNYDQLVRIAKVLGTDELYGYLKKYHIDLDPHFNDILGQHSRKRWENFIHSENRHLVSPEALDLLDKLLRYDHQQRLTAKEAMEHPYFYPVVKEQSQPCAENTVLSSGLTAAR
# B5: Gsk3b (protein, UniProt Q9WV60 1-420, looked up)
# Glycogen synthase kinase-3 …: MSGRPRTTSFAESCKPVQQPSAFGSMKVSRDKDGSKVTTVVATPGQGPDRPQEVSYTDTKVIGNGSFGVVYQAKLCDSGELVAIKKVLQDKRFKNRELQIMRKLDHCNIVRLRYFFYSSGEKKDEVYLNLVLDYVPETVYRVARHYSRAKQTLPVIYVKLYMYQLFRSLAYIHSFGICHRDIKPQNLLLDPDTAVLKLCDFGSAKQLVRGEPNVSYICSRYYRAPELIFGATDYTSSIDVWSAGCVLAELLLGQPIFPGDSGVDQLVEIIKVLGTPTREQIREMNPNYTEFKFPQIKAHPWTKVFRPRTPPEAIALCSRLLEYTPTARLTPLEACAHSFFDELRDPNVKLPNGRDTPALFNFTTQELSSNPPLATILIPPHARIQAAASPPANATAASDTNAGDRGQTNNAASASASNST
# B6: Snrpa (protein, UniProt Q62189 1-287, looked up)
# U1 small nuclear …: MATIATMPVPETRANHTIYINNLNEKIKKDELKKSLYAIFSQFGQILDILVSRIMKMRGQAFVIFKEVTSATNALRSMQGFPFYDKPMRIQYAKTDSDIIAKMKGTYVERDRKREKRKPKSQETPAAKKAVQGGAAAPVVGAVQPVPGMPPMPQAPRIMHHMPGQPPYMPPPGMIPPPGLAPGQIPPGAMPPQQLMPGQMPPAQPLSENPPNHILFLTNLPEETNELMLSMLFNQFPGFKEVRLVPGRHDIAFVEFDNEVQAGAARDALQGFKITQNNAMKISFAKK
# B7: Ccdc55 (protein, UniProt Q5NCR9 1-542, looked up)
# Nuclear speckle splicing …: MAIPGRQYGLILPKKTQPLHRVLQKPSVFGSDSDDDETSVSESLQREAAKKQAMKQTKLEIQKALAEDSTVYEYDSVYDEMQKKKEENNPKLLPGKDRKPKYIHNLLKAVEIRKKEQEKRMEKKIQREREMENGEFDDKEAFVTSAYKKKLEERAEEEEREKRAAALEAHLDVTKQKDLSGFYRHLLNQAVGEEAAPKSSFREARTVIKEEKLRGYPDETNSESRPPQQSCVLQRGAQEAEENPDADREFDDESSEDGEKRDHKVKSRGEDTGASMKHPKHHKNRAHSRSSSEERGLGTKHHSRGSQSRGHEHQDRQSRDQESCHKDRSHREEKSSHRHREASHKDHYWKKHEQEDKLKGREQEERQDREGKREKYSSREQERDRQRNDHDRYSEKEKKRKEKEEHTKARRERCEDSGKHREREKPEGHGQSSERHRDRRESSPRSRPKDDLDQERSSKARNTEKDKGEQGKPSHSETSLATKHRLAEERPEKGSEQERPPEAVSKFAKRSNEETVMSARDRYLARQMARINAKTYIEKEDD
# Target: T1, nSR100
# Experiment: AP-MS nSR100 interaction partners from mouse N2A cells (Table 5)
# Assay type: binding
# Conditions: bait Srrm4
# Excerpt: By applying affinity purification coupled to mass-spectrometry (AP-MS), several interaction nSR100 partner proteins were detected that provide insight into mechanisms of post-translational regulation of nSR100 levels.
AvgP (average of the SAINT scores),MaxP (maximal SAINT score),Molecule
1,1,B1
1,1,B2
1,1,B3
1,1,B4
1,1,B5
1,1,B6
1,1,B7

# Same assay, conditions: bait Srrm4, 0.1 added to prevent division by 0
row,FoldChange between the prey Avg spectra of the bait and control purifications,Molecule
1,150,B1
2,18,B2
3,4.61,B3
4,10,B4
5,65,B5
6,7.09,B6
7,75,B7

# Same assay, conditions: bait Srrm4, 2 replicates
row,AvgSpec (average number of spectra per replicate),Molecule
1,15,B1
2,9,B2
3,53,B3
4,20,B4
5,6.5,B5
6,39,B6
7,7.5,B7

# Same assay, conditions: bait Srrm4, biological replicate 1 (first number of the cell), AP-MS
row,Spectra (number of spectra for the prey in the purification of the bait),Molecule
1,15|15,B1
2,8,B2
3,58,B3
4,16,B4
5,6,B5
6,38,B6
7,5,B7

# Same assay, conditions: bait Srrm4, biological replicate 2 (second number of the cell), AP-MS
row,Spectra (number of spectra for the prey in the purification of the bait),Molecule
1,15|15,B1
2,10,B2
3,48,B3
4,24,B4
5,7,B5
6,40,B6
7,10,B7

# Same assay, conditions: bait Srrm4, sum of spectra over 2 replicates
row,SpecSum,Molecule
1,30,B1
2,18,B2
3,106,B3
4,40,B4
5,13,B5
6,78,B6
7,15,B7
